In patent US7691579B2, “Methods and compositions for producing an enhanced immune response to a human papillomavirus immunogen” (priority 2005, dated 2010):
Where “and” joins values, the source holds several entries; their conditions need not be identical. Identical values can stand only once.

Columns and labels:
HPV16 pseudovirus = experiment: Quantitative HPV16 pseudovirus neutralization assay with sera of vaccinated rabbits; format: in vivo; details: individual vaccinated rabbits
Description: Development of Antibody Response to L1-VLP: To analyze the effect of the GM-CSF/anti-CD40 antibody combination on antibody response, an ELISA assay was employed to measure the titre of anti-L1-VLP antibodies in mice immunized with the chimeric L1-VLP-L2-E2-E7 construct, with or without the GM-CSF/anti-CD40 antibody combination. Both groups of mice produced high titers of anti-L1 VLP antibodies (FIG. 9). There is no detectable anti-L1 VLP antibody in the serum of mice immunized with E7 peptide in combination with GM-CSF and anti-CD40 in IFA, as expected. […] To confirm the prophylactic potential of the chimeric L1-VLP-L2-E7-E2 construct, the anti body titers raised against the chimeric L1-VLP-E7 E2 construct and the L1-VLPs were compared using a recently developed quantitative HPV16 pseudovirus neutralization assay. […]
To test whether the combination of VLP-E7E2 with immune-modulators affects the antibody response, the titer of anti-L1-VLP antibodies was evaluated by ELISA. […] To confirm the prophylactic potential of the chimeric VLPs, we compared the antibody titers raised against the chimeric VLP-E7E2 and wild type VLPs, using a recently developed quantitative HPV16 pseudovirus neutralization assay. […]

[1] = tested on: C1R.AAD target cells pulsed with E7 11-20 and E7 86-93 peptides; experiment: CTL assay (51Cr release) with spleen cells of immunized AAD mice, response to E7; format: in vivo, HLA-A2 transgenic mice (AAD); details: co-injected in aqueous solution
Protocol: (§1) Immunization: Mice were immunized subcutaneously at the base of the tail with the chimeric VLPs. GM-CSF (Preprotech, Rocky Hill, N.J.) was given the day before and the same day as the VLP injection. Anti-CD40 (SouthernBiotech, Birmingham Ala.) was given with the VLP. Mice were also immunized with 50 nmoles of peptide in incomplete Freund's adjuvant (IFA) with or without GM-CSF (5 μg/mouse) and anti-CD40 (10 μg/mouse). All vaccines were prepared immediately prior to injection. Each group had 4 mice, and the pooled spleen cells from four mice were used for assays. 10 μg of VLP-E7E2 was given to a mouse. The MW of the VLP-E7E2 is about 5280 Kd (72×L1@55 Kd=3960 Kd, and 12×L2E7E2@110 kd=1320 Kd). The number of moles of VLP-E7E2 in 10 μg of total protein is about […].
(§2) CTL assay: Two (or three) weeks after immunization, spleens were aseptically removed and single cell suspensions are prepared. […] Cytolytic activity of cells is measured by a 4-h assay with ^51Cr-labeled EL-4 or C1R.AAD target cells in triplicate wells. Percent ^51Cr release is calculated as 100×(experimental release-spontaneous release)/(maximum release-spontaneous release). Maximum release is determined from supernatants of cells that are lysed by addition of […]. Spontaneous release is determined from target cells culture in medium. Data are expressed as an average from triplicate wells. […]

CD11c+ dendritic cells = experiment: FACScan analysis of dendritic cells in draining lymph nodes of immunized mice; format: in vivo, HLA-A2 transgenic mice (AAD); details: in VLP-E7E2 immunized mice, aqueous solution
Protocol: Draining lymph nodes were collected six days after immunization for FACScan analysis. Mice are immunized with 10 μg of chimeric VLP-E7 with or without GM-CSF or an anti-CD40L antibody. Draining inguinal lymph nodes are collected one week after immunization for FACScan analysis. The immunization protocols employed are as follows: Panel A—VLP-E7; Panel B—VLP-E7F+GM-CSF; Panel C—VLP-E7+anti-CD40 antibody; Panel D—VLP-E7+GM-CSF+anti-CD40 antibody. For Data 003, 010, 017, and 024, the percentage of gated is the sum of the number from the upper left and upper right quadrants. For the rest of the data, the percentage of gated is the number from the upper right quadrant indicating the CD80, CD 86 and CD40 positive cells.
Flow cytometric analysis and Abs: Lymph node cells (1×10^6) are taken from mice one week after immunization. […] Data files are analyzed using CellQuest software (BD Biosciences, Mountain View, Calif.).
DCS Play An Important Role In VLP-E7E2/GM-CSF/Anti-CD40 Induced CTL Response In Vivo: It is known that GM-CSF and anti-CD40 play important roles in DC activation (Gurunathan, S. et al. 1998 J. Immunol. 161:4563-4571; Ahlers, J. D. et al. 1997 PNAS USA 94:10856-10861). […] In the Examples reported herein, the phenotypic changes of DC in the draining lymph nodes (DLN) of vaccinated mice were analyzed. […]

[2] = tested on: EL-4 target cells pulsed with E7 49-57 peptides; experiment: CTL assay (51Cr release) with spleen cells of immunized C57BL/6 mice; format: in vivo; details: given in aqueous solution with VLP-E7E2
Protocol: as §1, §2

Molecule	neutralizing titers (HPV16 pseudovirus; listed as L1-VLP construct)	neutralizing titers (HPV16 pseudovirus; listed as wild type VLPs)	effect of co-injection on the VLP-E7E2-induced CTL response to E7 [1]	recruitment or activation of the DCs (CD11c+ dendritic cells)	effect on the VLP-E7E2 induced CTL response [2]
L1-VLP: VLP of the full length L1 capsid protein of HPV16, control	40,960 and 163,840	163,840	–	–	–
GM-CSF: murine granulocyte/macrophage colony stimulating factor (Preprotech) (protein, UniProt P01587 18-141, looked up) Granulocyte-macrophage …: APTRSPITVTRPWKHVEAIKEALNLLDDMPVTLNEEVEVVSNEFSFKKLTCVQTRLKIFEQGLRGNFTKLKGALNMTASYYQTYCPPTPETDCETQVTTYADFIDSLKTFLTDIPFECKKPGQK	–	–	no effect	no effect	no effect
